Measured values from the domain aggregation screens of Martell et al. (2025).

Experiment: soluble fraction after stress (log2 fold change); higher = more stays soluble; pooled small domains, quantitative proteomics
Conditions: stress: 50 degC
Outline: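 After stress at 50°C, the amount of each protein still soluble was measured. This was done on pooled custom libraries of small protein domains, using high-throughput quantitative proteomics. The figure given is a base-two log fold change and stands for aggregation propensity, with higher values meaning more protein stays in solution.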

Sequence	soluble fraction (log2)
HMLSRTYDSSGPDVKIRGTAQTVADKYMSLARDAQSSGDRVMAENYLQHAEHYNRIIAAAQAQ	0.254
HMAITLEQFLSVNPHIRNNLYGNAVELVKDKDFSVLSDKLKASSKWANEPSLYKILSHYDEIIS	0.063
HMSTMVEIPNVVGMTIKEAKEALGNLGLSISKISGSNEDSAIVTEVSPAPGSSVKRDESITLVGQPK	0.0366
HMGRLTTKIVLYDRIENIVPERRKELVADIEKRIGVKVEVLEIGHVDFVRDAAWLKVSYYLAPGE	-1.06
HMPPHGHIVELLPEQDFGRIETGDGRLVYFHRNSVLDGDFAQLAVGDAVRFAEEMGERGPQASSVHVE	0.0967
HMAQTEIPYSEFLREVGNGQIKSVIIEGSEITGFYKTSGTSFNVVAPDDPKLVERLMDQGVEVRAQPT	0.0919
HMSPDALSNLPIGSEIKFTLWDGTEKRLVKHPAAYQFSRPFWMNLNEYTYVPVNRIPKNYEVIRL	-0.0581
HMSTMTGTVDTPGASLNVRTGAWGPIVGQLAHGSKVTIIGSSGDWFKISYNGATRYVHKNYVNTT	-0.153
HMNDPIGDMLTRIRNAQMRGKSTVSTPASKLRAWVLEVLASEGYIRGFERATTDNGQGELVISLD	-0.665
HMKLVELVGSPKQIAWAEDIRKNMISYLSALVRKYEAENRPARAEKRAKDMEILSNIKEASWFIENRS	-0.661
HMQSLPFSFAKRHGVLLKSINHLHGEAVYRIGANPLSLSEVQRYAGVPLKLSSITVEKFDRLLQETYEHD	-1.14
HMGPEQLIGKTGIAASELAPRGEVKIEGQIWRAETVGDHVKQGEPVEVVSREGLILRVKPKHPQTRG	0.214
HMVQLAEGERYRRIQEANDFINRQQWPGKAAMGRLKDTEKAQYNLWLDYLDALEAVDTSSAPKINWPVPPE	0.167
HMRPTVNETQIREVFRSILGREVDPEGLRHYLGQAAKGWSIDQIRADVNNSQEAHQRRAELARQAEELK	0.181
HMDKVVGSAGDVTSRITANSGEVKIDGQIWQARSYDETIAIEAGEKIEVFDLDGITLIVYPI	-0.604
HMNVPYEMVTQNGEVFYKYKVQPGEGVFAVSRTFSVSVAEILRVNPEANKGLKNGQVLLIPVPKDMIA	0.0163
HMSSPVIQINTRNDGWIIKLLQPAVEKDVLEGYLADVGLKLQSQMMEKILAAPAGTEFHIKRGSNILTE	0.00933
HMSTDSTQLLGFNKTGEELPIYKEANEENKFAEIPQNVYVKNFGQNGEFTKIKYLDQEGYVKTAGLK	≥ 0.62
HMLRISEEVWALVEKTLREDWSPEQVSGKLKASGISVSHERIYQHIYADKRVGGTLWTHLRR	-2.3
HMAPEPFIVQITASSLNVRKGPGTSYAVAQTVSKGQVFTIVQQQGGWGKLKSGAGWISLKYTAR	-1.36
HMSRSLEIDVLVKALLEQDRRKFMLVTDGTADVTVRYNNALPSLFREGQGVVAEGLMDNGKFIATNVLAK	-0.631
HMGETPEILRDWEAAQNAVNDMLSKYAPGGYMGKIIYPLLTPLKERLEAGERTPDLYNAIVEAT	0.0804
HMAPIEVPYNVFRQQVVEGNVESVATRADTVQGYFETPVTLPARPDAAAAEPVTVERFSTTLPSF	0.142
HMGDHYTALGLSIDATPEEIRSAYFLAARRSHPDANPDAQTTEWFLRVQEAYDILSNPRRRAEYDASLP	-0.554
HMSPTSSRAAQARIRKMIESESPLKPISDSQLAARLGEEGISIARRTVAKYREQMNILPASQRRGV	-0.146
HMGTTIAMSKLKQVLRWKEEGYSNRKIAQLVGLNKETVNNYISRANADSLSQKELLQLDDFVLDIRLRG	-1.32

Sequence	soluble fraction (log2)
HMSGYSTLFTRMSREDAQAVVSLLQDDGIEYRYNDDTGTVQVPSATVDQTRAKLVSAGYPRS	-0.231
HMRNPLYAQVADYVMQQIAAGTYRPHQAIPTEWQLAKKLEVSQGTVRKGLDELVFKQILYRQQGVGTFVAD	-1.19
HMDRWTPLIVAVLIEGSHRFGELRSAIGGITPKVLTETLRSMERDGLVTRDQVPGVPPRVDYALTPLG	-0.334
HMGEVVRAPMPGNVLKMEVAQGQEVEEGDLLLVLEAMKMENDIVAPKGGIVIQLVVDKGMVVETDDPLVVI	0.0323
HMEVALEVPELRGLSMKQATNTLMASGFEVQKVGSGTIYAQFPLPGERLRTGYAVTIRGKTRDLG	-0.258
HMTATIEEVNELTQSARVNINVPYAAKDEAKAYGAKWDDVERTWYTTGENYAQNKDFFDGFNPTAS	0.156
HMAPQSAAAILRYLSSGAIRGVGPATAQRIVERFGTDSLEIIQNRPKELAAINGISINKALSISEEYAKQY	-0.831
HMEEKTMNLPPSAKLVYKILSYEGNLTQKEIINMTYLPERTVRHALELLLGKRLITRQAYLNDARQSVYG	-1.66
HMANTSAVIKQPGLVKLFAQHFVRNGFNAMKAAEAAGFVRPSPTFVRNLADSKPVKDAISELLGPYNDA	-0.0131
HMLGAGFDSDLTARENIFLNGALLGHSRAVMRGYYDDIVNFAELHDFMDVPVKNFSSGMTSRLAFSIATIG	0.00802
HMEINKLIELIGGYKALSEVLNVSKSAISNYKKRGSLPSYAIPIIVKELKSKGISIDLSEFT	-0.66
HMEDDPIYEQVMIFLLDKQITSAPELERRFKITHQRAIELLAQMEKTGIVSTMGHAGKRDVLT	-0.827
HMPYEHQRAVGALIRRLREQQGWSQRALADWVHMDQSAVSRVETGQRSVTAEELGRFADALHVSTDALVR	-0.291
HMTMMTFGEKLQNARKGAGLSQEQLAEKLSVSRSAVAKWENDNGMPDIDNLKAIAQLLDVSIDYLLEN	0.133
HMERLSVSMGDMVVFVRDAVEAFRGLVKEKGITLTFESKVEHFYMNYDHDKVYKVVNNLLSNAVKFT	-0.209
HMTSPELIELGERIRKRRQEMNLSQEALAEKAGISINTVSRVEGGQTAMSIEIFRKMIEILETDANGL	-0.212
HMHQKYIITGTRDTYVVSQGETLRTIAEHVYGSRGYARYIIEHNHITHPDDIPVGLTIRLPELELNPDYR	-0.525
HMHDWDITTAAKPEKIFELFSDIPVLETGLKHGTVTLLIDHEPYEVTTFRVDGNYTDGRHPDSVAFT	-0.0484
HMDYYNILGVNKAATAQDIKRAYRKLAKEHHPDHGGDATRLQQVNEAYDTLKDPQRREQYDS	0.24
HMSVLRLGNRGPDVRKLQLLLNSTLVPSPQLTVDGDFGKRTEQAVVTFQQMRGLPQDGIVGQRTWALLGQT	-0.518
HMTDRINIGDVVTIISKDREDSQIVYMRYHKGKLSILGELILNKTKNDTVDFKGRTYDIATIEKS	-1.83
HMVKTIINGEEKDFDAQDFQTFGDFLKKVIPEGQILKSLKINSKDVPIAFIDELKSATVDENITIEMELA	0.429
HMNYVFVLNEHGVRQTSYVVGLHADTLEKTEKLAKQTYPTSTIISGDSEMQSQFISGKAYVNGEFVDP	-0.471
HMAEDLRTLDGIDEDLLRDLAQAGITTRDGLAELSIDELREITGVEPGEAEKIILAARAHWFETDE	-0.135
HMNKEQIASNIAEARKRSGLNQSELARRLGIRPQSVQQWEKGTATPKLDRLTAIAQVLGVSLESLTG	-0.0259
HMPPSQRVNRILSLAGITSRRKADEYILEGRVTVNGEVLKEPGAKAVWGTDDIRVDGKPIPALS	0.1

Sequence	soluble fraction (log2)
HMEEFAGYINGQPYYGPTHQHRGVKMVGAEHTQRPHPLVWDSVAKSLDNYDNRFQWVNGNLLQVV	0.0306
HMGSFFSKATAPVRTTGGDGLYKHGSIWFNTSTGRLFVYIPDDRYTGLLDTHNGDIGYWVDVS	-2.2
HMAVTKVKVITESSNLNIRKGPGTDQPIVGKAAHHEIITLVNKSNDQWWLVRTNDGEEGYSYSRYLEPVT	-0.39
HMDKAALGQKLRQARLDKGYTQQSLSEKADIGEVYLSEIERGLKMPSMNLFIKLITALDISADYILR	-1.44
HMSSARKVTVRGVRELPGIFMEKAEILDDGVRFFYRGEMEKLIGALQGLPIRDLTITEPDLEEVFLHFY	-1.09
HMDLEGLSNKELVTLRGQIQDDLNKWATEVGIIDPKNRPDDYNRALQSLEDAKRQRSAIDAKL	0.0869
HMNLSNVVIRKVQEMILSGELQEGDKLPPEREMTQRLGIGRPALREGLKSLEMLGLVERRHGLGNFIINKV	-0.783
HMTKVKIDRLFSIVQMLVNRKSVTAKELADYFNVSVRTIYRDIEILSANGIPIYATQGKGGGISILEN	-1.05
HMNMFGIQRRNHLLSLLQEKKSITVQEAAVIFEVAEETIRRDFRTMEGQGLIVRTHGGALLADD	-2.19
HMERKMKNNISDQTTYDTDKILNFNGKGYLNGLVIPNNYQIKEEGYYVFRQVALDGREQILYFTIQDLS	-1.96
HMSLPDREVVLETSSDSYYHFKTDHFQRQITYSAVRNAPVRLVTISAERAFEVISLNRRGERPEHLE	-3.53
HMSIMNEQIREILNQQVTKTSKIQQLLLLGLTRRQVADLVTNGNYGFVQNVYRNMLDAGIFTP	-0.5
HMRYPLPYAFARSQQLLLEETDDGRYTLWMSSHPARSAVGEVSRKYGVQTFEVLADGPLAQRISAAYAQ	-1.37
HMSKSPELMEKIKEFAEGYFRENGETPSNKTIAGAMGMGRSTVYYYLVDMAQRGMISYENGVISTEKIRKL	-1.32
HMVEVTTDEITRPGAMVSGSVTFSDGVKAIWLIDEYGRPGLEPETPGYQPSESDLSEFEKHLRALLQ	0.0647
HMGKKIVERRNTILNMVNKYGTLDFPQLRDAFPDVSDVTLRKDLQYLDSTKQAIRTHGGIKSI	0.0534
HMSNEDAYIKLRNGFLATLSEADLLLFTLREEGKTQKEIADQLGYKTHSAVSKRLQTMRGQFEGYLKTQ	-0.68
HMDRKEEIIIVTLKLASQIGLSNVSMEQIAKQVGIKKPSLYNHFKSKDEIIDAMYEYLREKSKN	-0.869
HMEDPLAAQWKQGRKLFHDDYGYGIISKAFTAGDELVIMVQFENGGEKRFLPKYQAHNLLLVEQ	-0.218
HMQDAVASEKIQLMSEALHARDTGDLLLAKEKVEKLIALAPNDKNIQALLLTINQSIEDKGL	0.101
HMRTQEELVAEVREQMEAMGTIATLYVELYESSEERLVGGVIFEDERHYRFVYEDGLLHYEEEK	-0.206
HMNHGDATTETQAEIMAILSDMKPHPITELNTIKRPYEQIDTALTYLINEEKIYRMDGMIFIG	-0.694
HMLILTWNYPYEYPMMMRSFLQEIGISRTFLAHIKSNGELLINGRHEIVLKTLQPGDVLTMVIPPSG	-1.71
HMYSDIERAMTNAPEQFANKQAVLDFLNKNRIKKSEVDDYRIASLLKLYDDASPISKTEIISQVRT	0.149
